The supplement of paper PMC5998384

Columns and labels:
HeLa Kyoto [1] = assay: solubility in G1/S (NP-40 vs SDS abundance) (log2 ratio); higher = more soluble; details: cell cycle stage: G1/S
HeLa Kyoto [2] = assay: solubility change mitosis vs G1/S (difference of NP-40 vs SDS log2 ratios) (log2 ratio difference); higher = more soluble in mitosis
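Throughout, for solubility change mitosis vs G1/S (difference of NP-40 vs SDS log2 ratios): synchronized HeLa Kyoto cells (double thymidine block for G1/S, nocodazole release for mitosis), protein amounts in NP-40 versus SDS lysates quantified by mass spectrometry, three biological replicates.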
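Throughout, for solubility in G1/S (NP-40 vs SDS abundance): HeLa Kyoto cells arrested at G1/S by double thymidine block, proteins quantified by TMT10plex mass spectrometry in mild NP-40 versus SDS extracts, three biological replicates.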

Question: Which “solubility in G1/S (log2)” value (HeLa Kyoto [1]) does the source give for “MKKSYSGGTRTSSGRLRRLGDSSGPALKRSFEVEEVETPNSTPPRRVQTPLLRATVASSTQKFQDLGVKNSEPSARHVDSLSQRSPKASLRRVELSGPKAAEPVSRRTELSIDISSKQVENAGAIGPSRFGLKRAEVLGHKTPEPAPRRTEITIVKPQESAHRRMEPPASKVPEVPTAPATDAAPKRVEIQMPKPAEAPTAPSPAQTLENSEPAPVSQLQSRLEPKPQPPVAEATPRSQEATEAAPSCVGDMADTPRDAGLKQAPASRNEKAPVDFGYVGIDSILEQMRRKAMKQGFEFNIMVVGQSGLGKSTLINTLFKSKISRKSVQPTSEERIPKTIEIKSITHDIEEKGVRMKLTVIDTPGFGDHINNENCWQPIMKFINDQYEKYLQEEVNINRKKRIPDTRVHCCLYFIPATGHSLRPLDIEFMKRLSKVVNIVPVIAKADTLTLEERVHFKQRITADLLSNGIDVYPQKEFDEDSEDRLVNEKFREMIPFAVVGSDHEYQVNGKRILGRKTKWGTIEVENTTHCEFAYLRDLLIRTHMQNIKDITSSIHFEAYRVKRLNEGSSAMANGMEEKEPEAPEM [SEPT9]” here?
Answer: The value was 0.198.

Question: And the “solubility change mitosis (log2)” value (HeLa Kyoto [2])?
Answer: The value was -0.0335.

Question: How did the “solubility in G1/S (log2)” value (HeLa Kyoto [1]) turn out when “MKLLRRAWRRRAALGLGTLALCGAALLYLARCAAEPGDPRAMSGRSPPPPAPARAAAFLAVLVASAPRAAERRSVIRSTWLARRGAPGDVWARFAVGTAGLGAEERRALEREQARHGDLLLLPALRDAYENLTAKVLAMLAWLDEHVAFEFVLKADDDSFARLDALLAELRAREPARRRRLYWGFFSGRGRVKPGGRWREAAWQLCDYYLPYALGGGYVLSADLVHYLRLSRDYLRAWHSEDVSLGAWLAPVDVQREHDPRFDTEYRSRGCSNQYLVTHKQSLEDMLEKHATLAREGRLCKREVQLRLSYVYDWSAPPSQCCQRREGIP [B3GALT6]” was run?
Answer: Its value is -0.748.

Question: And the “solubility change mitosis (log2)” value (HeLa Kyoto [2])?
Answer: Its value is 0.135.

Question: Which results are given for “MKMEEAVGKVEELIESEAPPKASEQETAKEEDGSVELESQVQKDGVADSTVISSMPCLLMELRRDSSESQLASTESDKPTTGRVYESDSSNHCMLSPSSSGHLADSDTLSSAEENEPSQAETAVEGDPSGVSGATVGRKSRRSRSESETSTMAAKKNRQSSDKQNGRVAKVKGHRSQKHKERIRLLRQKREAAARKKYNLLQDSSTSDSDLTCDSSTSSSDDDEEVSGSSKTITAEIPDGPPVVAHYDMSDTNSDPEVVNVDNLLAAAVVQEHSNSVGGQDTGATWRTSGLLEELNAEAGHLDPGFLASDKTSAGNAPLNEEINIASSDSEVEIVGVQEHARCVHPRGGVIQSVSSWKHGSGTQYVSTRQTQSWTAVTPQQTWASPAEVVDLTLDEDSRRKYLL [C18ORF25]”?
Answer: solubility in G1/S (log2) (HeLa Kyoto [1]): -0.0209; solubility change mitosis (log2) (HeLa Kyoto [2]): -0.243

Question: For “MKRQSERDSSPSGRGSSSSAKRPREREREAEAGGRRAAHKASGGAKHPVPARARDKPRGSGSGGGGHRDGRGTGDANHRASSGRSSGSGAGGGGRGGKASGDPGASGMSPRASPLPPPPPPPGAEPACPGSSAAAPEYKTLLISSLSPALPAEHLEDRLFHQFKRFGEISLRLSHTPELGRVAYVNFRHPQDAREARQHALARQLLLYDRPLKVEPVYLRGGGGSSRRSSSSSAAASTPPPGPPAPADPLGYLPLHGGYQYKQRSLSPVAAPPLREPRARHAAAAFALDAAAAAAVGLSRERALDYYGLYDDRGRPYGYPAVCEEDLMPEDDQRATRNLFIGNLDHSVSEVELRRAFEKYGIIEEVVIKRPARGQGGAYAFLKFQNLDMAHRAKVAMSGRVIGRNPIKIGYGKANPTTRLWVGGLGPNTSLAALAREFDRFGSIRTIDHVKGDSFAYIQYESLDAAQAACAKMRGFPLGGPDRRLRVDFAKAEETRYPQQYQPSPLPVHYELLTDGYTRHRNLDADLVRDRTPPHLLYSDRDRTFLEGDWTSPSKSSDRRNSLEGYSRSVRSRSGERWGADGDRGLPKPWEERRKRRSLSSDRGRTTHSPYEERSRTKGSGQQSERGSDRTPERSRKENHSSEGTKESSSNSLSNSRHGAEERGHHHHHHEAADSSHGKKARDSERNHRTTEAEPKPLEEPKHETKKLKNLSEYAQTLQLGWNGLLVLKNSCFPTSMHILEGDQGVISSLLKDHTSGSKLTQLKIAQRLRLDQPKLDEVTRRIKQGSPNGYAVLLATQATPSGLGTEGMPTVEPGLQRRLLRNLVSYLKQKQAAGVISLPVGGSKGRDGTGMLYAFPPCDFSQQYLQSALRTLGKLEEEHMVIVIVRDTA [RBM15B]”, which “solubility in G1/S (log2)” value (HeLa Kyoto [1]) is on record?
Answer: The value was -0.311.

Question: And the “solubility change mitosis (log2)” value (HeLa Kyoto [2])?
Answer: Its value is 0.504.

Question: Which results are given for “MLGTVKMEGHETSDWNSYYADTQEAYSSVPVSNMNSGLGSMNSMNTYMTMNTMTTSGNMTPASFNMSYANPGLGAGLSPGAVAGMPGGSAGAMNSMTAAGVTAMGTALSPSGMGAMGAQQAASMNGLGPYAAAMNPCMSPMAYAPSNLGRSRAGGGGDAKTFKRSYPHAKPPYSYISLITMAIQQAPSKMLTLSEIYQWIMDLFPYYRQNQQRWQNSIRHSLSFNDCFVKVARSPDKPGKGSYWTLHPDSGNMFENGCYLRRQKRFKCEKQPGAGGGGGSGSGGSGAKGGPESRKDPSGASNPSADSPLHRGVHGKTGQLEGAPAPGPAASPQTLDHSGATATGGASELKTPASSTAPPISSGPGALASVPASHPAHGLAPHESQLHLKGDPHYSFNHPFSINNLMSSSEQQHKLDFKAYEQALQYSPYGSTLPASLPLGSASVTTRSPIEPSALEPAYYQGVYSRPVLNTS [FOXA1]”?
Answer: solubility in G1/S (log2) (HeLa Kyoto [1]): 0.392; solubility change mitosis (log2) (HeLa Kyoto [2]): 0.0934

Question: How did the “solubility in G1/S (log2)” value (HeLa Kyoto [1]) turn out when “MLPGVGVFGTSLTARVIIPLLKDEGFAVKALWGRTQEEAEELAKEMSVPFYTSRIDEVLLHQDVDLVCINLPPPLTRQIAVKTLGIGKNVICDRTATPLDAFRMTSAAHYYPKLMSIMGNVLRFLPAFVRMKQLIEEGYVGEPLVCEVQVHGGSLLGKKYNWSCDDLMGGGGLHSVGTYIIDLLTFLTGQKAVKVHGLLKTFVKQTDHIKGIRQITSDDFCTFQMVLEGGVCCTVTLNFNVPGEFKQDVTVVGSAGRLLAVGTDLYGQRNSAPEQELLVQDATPVSNSLLPEKAFSDIPSPYLRGTIKMMQAVRQAFQDQDDRRTWDGRPLTMAATFDDCLYALCVVDTIKRSSQTGEWQNIAIMTEEPELSPAYLISEAMRRSRMSLYC [GFOD1]” was run?
Answer: Its value is -0.0575.

Question: And the “solubility change mitosis (log2)” value (HeLa Kyoto [2])?
Answer: Its value is -0.244.

Question: Which “solubility in G1/S (log2)” value (HeLa Kyoto [1]) does the source give for “MLPPMALPSVSWMLLSCLMLLSQVQGEEPQRELPSARIRCPKGSKAYGSHCYALFLSPKSWTDADLACQKRPSGNLVSVLSGAEGSFVSSLVKSIGNSYSYVWIGLHDPTQGTEPNGEGWEWSSSDVMNYFAWERNPSTISSPGHCASLSRSTAFLRWKDYNCNVRLPYVCKFTD [PAP1]” here?
Answer: The value was 0.102.

Question: And the “solubility change mitosis (log2)” value (HeLa Kyoto [2])?
Answer: The value was -0.21.

Question: What does the source list for “MLRSTGFFRAIDCPYWSGAPGGPCRRPYCHFRHRGARGSGAPGDGGEAPPAAGLGYDPYNPELPKPPAQRENGTLGLGEEPRPDVLELELVNQAIEAVRSEVELEQRRYRELLETTREHRSAEAPALAPRGPNASPTVGPDEDAFPLAFDYSPGSHGLLSPDAGYQPTPLAAPAEPGSKYSLASLDRGQGRGGGGGGALEYVPKAVSQPRRHSRPVPSGKYVVDNSRPPTDLEYDPLSNYSARHLSRASSRDERAAKRPRGSRGSEPYTPAPKKLCDPFGSCDARFSDSEDEAATVPGNEPTTASTPKARADPEIKATGQPPSKEGLEAEGGGLRETKETAVQCDVGDLQPPPAKPASPAQVQSSQDGGCPKEGKPKKKKTGAPPAPSCKDGAQGKDKTKDKGRGRPVEKPRADKKGPQASSPRRKAERPEGTKKKPSSATPVATSGKGRPDRPARRPSPTSGDSRPAAGRGPPRPLQLPDRKSTKAPSGKLVERKARSLDEGASQDAPKLKKRALSHADLFGDESEDEAAGPGVPSVWPSALPSLSSDSDSDSDSSLGFPEAQGPPKRLKASPPPSPAPSSSSSSSSSTSSAGADVDYSALEKEVDFDSDPMEECLRIFNESTSVKTEDRGRLARQPPKEEKSEEKGLSGLTTLFPGQKRRISHLSKQGQEVEPPRRGPAVPPARPPTAQEVCYLRAQQAQRASASLLQAPARLAEKSPSVHISAPGEKRRIAHIPNPRLAAAPTGAKRTLAASGSQSSNGPEPGGQQLKTRTLSGMASKTTTTIIPKRIAHSPSLQSLKKPIIPKEFGGKVPTVIRQRYLNLFIEECLKFCTSNQEAIEKALNEEKVAYDRSPSKNIYLNVAVNTLKKLRGLAPSAVPGLSKTSGRRVVSHEVVLGGRLAAKTSFSLSRPSSPRVEDLKGAALYSRLREYLLTQDQLKENGYPFPHPERPGGAIIFTAEEKRPKDSSCRTCCRCGTEYLVSSSGRCIRDEECYYHWGRLRRNRVAGGWETQYMCCSAAAGSVGCQVAKQHVQDGRKERLEGFVKTFEKELSGDTHPGIYALDCEMSYTTYGLELTRVTVVDTDVHVVYDTFVKPDNEIVDYNTRFSGVTEADLADTSVTLRDVQAVLLSMFSADTILIGHSLESDLLALKVIHSTVVDTSVLFPHRLGLPYKRSLRNLMADYLRQIIQDNVDGHSSSEDAGACMHLVIWKVREDAKTKR [REXO1]”?
Answer: solubility in G1/S (log2) (HeLa Kyoto [1]): -0.201; solubility change mitosis (log2) (HeLa Kyoto [2]): -0.0256

Question: Which results are given for “MLRVVSWNINGIRRPLQGVANQEPSNCAAVAVGRILDELDADIVCLQETKVTRDALTEPLAIVEGYNSYFSFSRNRSGYSGVATFCKDNATPVAAEEGLSGLFATQNGDVGCYGNMDEFTQEELRALDSEGRALLTQHKIRTWEGKEKTLTLINVYCPHADPGRPERLVFKMRFYRLLQIRAEALLAAGSHVIILGDLNTAHRPIDHWDAVNLECFEEDPGRKWMDSLLSNLGCQSASHVGPFIDSYRCFQPKQEGAFTCWSAVTGARHLNYGSRLDYVLGDRTLVIDTFQASFLLPEVMGSDHCPVGAVLSVSSVPAKQCPPLCTRFLPEFAGTQLKILRFLVPLEQSPVLEQSTLQHNNQTRVQTCQNKAQVRSTRPQPSQVGSSRGQKNLKSYFQPSPSCPQASPDIELPSLPLMSALMTPKTPEEKAVAKVVKGQAKTSEAKDEKELRTSFWKSVLAGPLRTPLCGGHREPCVMRTVKKPGPNLGRRFYMCARPRGPPTDPSSRCNFFLWSRPS [APEX2]”?
Answer: solubility in G1/S (log2) (HeLa Kyoto [1]): 0.0896; solubility change mitosis (log2) (HeLa Kyoto [2]): -0.0093

Question: Which results are given for “MLSPQRALLCNLNHIHLQHVSLGLHLSRRPELQEGPLSTPPPPGDTGGKESRGPCSGTLVDANSNSPAVPCRCCQEHGPGLENRQDPSQEEEGAASPSDPGCSSSLSSCSDLSPDESPVSVYLRDLPGDEDAHPQPSIIPLEQGSPLASAGPGTCSPDSFCCSPDSCSGASSSPDPGLDSNCNALTTCQDVPSPGLEEEDERAEQDLPTSELLEADDGKIDAGKTEPSWKINPIWKIDTEKTKAEWKTTENNNTGWKNNGNVNSSWKSEPEKFDSGWKTNTRITDSGSKTDAGKIDGGWRSDVSEEPVPHRTITSFHELAQKRKRGPGLPLVPQAKKDRSDWLIVFSPDTELPPSGSPGGSSAPPREVTTFKELRSRSRAPAPPVPPRDPPVGWALVPPRPPPPPVPPRRKKNRPGLQPIAEGQSEEGRAVSPAAGEEAPAAKEPGAQAGLEVRSSWSFAGVPGAQRLWMAEAQSGTGQLQEQKKGLLIAVSVSVDKIISHFGAARNLVQKAQLGDSRLSPDVGHLVLTTLCPALHALVADGLKPFRKDLITGQRRSSPWSVVEASVKPGSSTRSLGTLYSQVSRLAPLSSSRSRFHAFILGLLNTKQLELWFSSLQEDAGLLSLLYLPTGFFSLARGGCPSLSTELLLLLQPLSVLTFHLDLLFEHHHHLPLGPPQAPAPPGPPPALQQTMQAMLHFGGRLAQSLRGTSKEAASDPSDSPNLPTPGSWWEQLTQASRVYASGGTEGFPLSRWAPGRHGTAAEEGAQERPLPTDEMAPGRGLWLGRLFGVPGGPAENENGALKSRRPSSWLPPTVSVLALVKRGAPPEMPSPQELEASAPRMVQTHRAVRALCDHTAARPDQLSFRRGEVLRVITTVDEDWLRCGRDGMEGLVPVGYTSLVL [RUSC1]”?
Answer: solubility in G1/S (log2) (HeLa Kyoto [1]): 0.182; solubility change mitosis (log2) (HeLa Kyoto [2]): -0.133
